From patent publication US20240287172A1 (SCIRHOM, published 2024)

Legend:
hiR2-FL-T544P-T7 = molecular target: T1, hiR2-FL-T544P-T7 (human, UniProt Q6PJF5 1-856); experiment: FACS, MEF-DKO cells, 3 µg/ml
T1 sequence: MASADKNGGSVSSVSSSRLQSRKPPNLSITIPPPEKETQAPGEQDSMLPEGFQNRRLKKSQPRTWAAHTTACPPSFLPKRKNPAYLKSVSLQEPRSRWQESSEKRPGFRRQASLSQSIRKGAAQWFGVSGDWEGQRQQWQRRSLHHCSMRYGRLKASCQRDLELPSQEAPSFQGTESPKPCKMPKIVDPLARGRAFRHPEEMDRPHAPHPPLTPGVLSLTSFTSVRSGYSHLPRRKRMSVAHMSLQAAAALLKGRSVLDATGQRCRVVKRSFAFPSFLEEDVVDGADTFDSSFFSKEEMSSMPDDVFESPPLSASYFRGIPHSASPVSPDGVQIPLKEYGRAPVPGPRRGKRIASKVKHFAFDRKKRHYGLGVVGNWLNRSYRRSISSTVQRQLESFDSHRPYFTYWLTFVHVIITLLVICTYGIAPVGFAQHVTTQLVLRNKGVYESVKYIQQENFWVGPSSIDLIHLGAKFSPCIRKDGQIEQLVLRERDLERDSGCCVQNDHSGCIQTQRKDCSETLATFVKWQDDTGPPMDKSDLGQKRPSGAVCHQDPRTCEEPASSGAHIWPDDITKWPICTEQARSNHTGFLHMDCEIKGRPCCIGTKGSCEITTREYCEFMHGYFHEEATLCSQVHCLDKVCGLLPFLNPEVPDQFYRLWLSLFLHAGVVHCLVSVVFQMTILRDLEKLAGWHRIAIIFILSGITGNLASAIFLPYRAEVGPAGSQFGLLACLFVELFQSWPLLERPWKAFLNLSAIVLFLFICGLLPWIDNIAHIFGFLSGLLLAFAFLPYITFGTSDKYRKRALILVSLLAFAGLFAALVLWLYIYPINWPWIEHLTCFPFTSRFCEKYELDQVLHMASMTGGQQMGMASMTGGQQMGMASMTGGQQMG
From the text: (§1) In brief, immortalized MEF-DKO-hiR2-FL-WT-T7 cells, MEF-DKO-miR2-FL-WT-T7 cells and MEF-DKO-hiR2-FL-R441K-T7, MEF-DKO-hiR2-FL-K443R-T7, MEF-DKO-hiR2-FL-V459I-T7, MEF-DKO-hiR2-FL-G481Q-T7, MEF-DKO-hiR2-FL-L488R-T7, MEF-DKO-hiR2-FL-L493I-T7, MEF-DKO-hiR2-FL-D496T-T7, MEF-DKO-hiR2-FL-H505R-T7, MEF-DKO-hiR2-FL-Q512L-T7, MEF-DKO-hiR2-FL- R513K-T7, MEF-DKO-hiR2-FL-D528N-T7, MEF-DKO-hiR2-FL-P533-T7, MEF-DKO-hiR2-FL-M534S-T7, MEF-DKO-hiR2-FL-G540S-T7, MEF-DKO-hiR2-FL-R543Q-T7, MEF-DKO-hiR2-FL-T544P-T7, MEF-DKO-hiR2-FL-G546A-T7, MEF-DKO-hiR2-FL-A547V-T7, MEF-DKO-hiR2-FL-R582Q-T7, MEF-DKO-hiR2-FL-F588L-T7, MEF-DKO-hiR2-FL-M591I-T7, MEF-DKO-hiR2-FL-E594K-T7, MEF-DKO-hiR2-FL-E626D-T7, MEF-DKO-hiR2-FL-L657I-T7, and MEF-DKO-hiR2-FL-H835Y-T7 cells were harvested with 10 mM EDTA in PBS, washed and resuspended in FACS buffer (PBS, 3% FBS, 0.05% sodium azide), and seeded in Nunc U-bottom 96-well plates (Thermo Fisher Scientific, USA) at approximately 3×10⁵ cells per well.
(§2) To pellet cells and remove supernatants, the plates were centrifuged at 1,500 rpm and 4° C. for 3 minutes. For primary staining, cells were resuspended in 100 μl per well of either FACS buffer alone (controls) or the purified antibodies 3, 5, 16, 22, 34, 42, 43, 44, 48, and 50 of the invention at 3 μg/ml FACS buffer and incubated on ice for 1 hour. Afterwards, plates were centrifuged at 1,500 rpm and 4° C. for 3 minutes and washed twice with 200 μl per well of FACS buffer. For secondary staining, cells were spun down and resuspended in 100 μl per well of PE-conjugated goat anti-mouse IgG F(ab′)2 detection fragment (Dianova, Germany) diluted 1:100 in FACS buffer. Protected from light, the cell suspensions were incubated on ice for 1 hour. Plates were then centrifuged at 1,500 rpm and 4° C. for 3 minutes and washed three times with 200 μl per well of FACS buffer. Finally, cells were resuspended in 150 μl per well of FACS buffer and analyzed using a BD Accuri™ C6 Plus flow cytometer (Becton Dickinson, Germany).

hiR2-FL-G546A-T7 = molecular target: T2, hiR2-FL-G546A-T7 (human, UniProt Q6PJF5 1-856); experiment: FACS, MEF-DKO cells, 3 µg/ml
T2 sequence: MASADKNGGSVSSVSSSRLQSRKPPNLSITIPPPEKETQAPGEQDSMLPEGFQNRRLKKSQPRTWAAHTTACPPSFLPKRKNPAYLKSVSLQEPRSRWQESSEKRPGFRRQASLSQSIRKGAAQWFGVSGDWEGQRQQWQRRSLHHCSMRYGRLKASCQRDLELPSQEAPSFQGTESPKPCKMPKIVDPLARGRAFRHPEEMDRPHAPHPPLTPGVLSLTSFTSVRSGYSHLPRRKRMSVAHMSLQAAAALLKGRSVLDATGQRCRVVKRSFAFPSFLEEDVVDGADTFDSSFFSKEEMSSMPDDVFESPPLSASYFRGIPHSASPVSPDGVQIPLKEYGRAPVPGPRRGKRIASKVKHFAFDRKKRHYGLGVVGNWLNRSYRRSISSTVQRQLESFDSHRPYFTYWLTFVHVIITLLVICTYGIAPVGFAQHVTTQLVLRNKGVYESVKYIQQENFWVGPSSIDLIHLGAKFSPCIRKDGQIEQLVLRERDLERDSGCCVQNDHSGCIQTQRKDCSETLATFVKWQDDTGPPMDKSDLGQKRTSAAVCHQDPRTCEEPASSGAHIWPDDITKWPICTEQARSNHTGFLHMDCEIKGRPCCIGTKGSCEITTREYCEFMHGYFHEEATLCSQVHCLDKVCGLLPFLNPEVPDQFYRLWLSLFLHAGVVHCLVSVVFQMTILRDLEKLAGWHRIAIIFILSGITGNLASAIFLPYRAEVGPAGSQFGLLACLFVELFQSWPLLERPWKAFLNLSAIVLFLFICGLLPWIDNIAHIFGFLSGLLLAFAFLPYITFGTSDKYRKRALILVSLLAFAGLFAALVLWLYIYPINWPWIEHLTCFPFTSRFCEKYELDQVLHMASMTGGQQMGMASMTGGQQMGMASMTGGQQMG
From the text: as §1, §2

Binder	loss of binding vs wild type (hiR2-FL-T544P-T7)	loss of binding vs wild type (hiR2-FL-G546A-T7)
antibody 3 (antibody, V domains shown, mouse IgG, kappa light chain; also called clone #3; purified antibody 3) VH: QVTLKESGPGILQPSQTLSLTCSFSGFSLTTFAMGIGWVRQPSGKGLEWLAHIWWDGEKYNNPVLKSRLTISKDTSKNQVFLRIANVDTPDTATYYCARISSIYYIIDNWGQGTSVTVSS VL: DIVLTQSPATLSVTPGHSVSLSCRASQSISNNLHWYQKKSHESPRLLIKYVSQSISGIPSRFSGSGSGTDFTLSINSVETEDFGMYFCQQSYNWPLTFGAGTKLELK	≥ 60%	≥ 30%
antibody 5 (antibody, V domains shown, mouse IgG, kappa light chain; also called clone #5; purified antibody 5) VH: QVTLKESGPGILQPSQTLSLTCSFSGFSLSTFGMGVGWIRQPSGKGLEWLAHIWWDDEKYYNSALKSRLTISKATSKNQAFLKIANVDTADTATYYCARISNYGSNYWYFNVWGTGTTVTVSS VL: QVVLTQSPALMSASPGEKVTMTCSAGSSVSCMYWYQQKPGSSPRVLIYDTSNLASGVPARFTGSGSGTSYSLTISRMEAEDAASYYCQQWNSYPLTFGAGTKLELK	≥ 60%	≥ 95%
antibody 44 (antibody, V domains shown, mouse IgG, kappa light chain; also called clone #44; purified antibody 44) VH: QVTLKESGPGILQPSQTLSLTCSFSGFSLSTFGMGVGWIRQPSEKGLEWLAHIWWDDDKYYNPALKSRLTISKDTSKNQIFLKITNVDTAETATYYCSRIGNYGSNYWYFDVWGTGTTVTVSS VL: QIVLTQSPAVMSASPGEKVTMTCTASSSVYYMYWYQQTPGSSPRLLIYDTSNLASGVPVRFSGSGSGTSYSLTISRMEAEDAATYYCQQWNTYPLTFGAGTKLELK	≥ 30%	≥ 60%
antibody 42 (antibody, V domains shown, mouse IgG, kappa light chain; also called clone #42; purified antibody 42) VH: QVTLKESGPGILQPSQTLSLTCSLSGFSLSTFGRGVGWIRQPSGKGLEWLAHIWWDDEKYYNPALKSRLTISKDTSKNQVFLRIANVDTADTATYYCARIQNYGSNYWYFDVWGTGTTVTVSS VL: LIVLTQSPAIMSASPGEKVTMTCGATSRISYMFWYQQKPGSSPRVLIYDTSNLASGVPVRFSGSGSGTSYSLTISRVEAEDVATYYCQQWNSYPLTFGAGTKLELK	≥ 60%	≥ 60%
antibody 43 (antibody, V domains shown, mouse IgG, kappa light chain; also called clone #43; purified antibody 43) VH: QVALKESGPGILQPSQTLSLTCSFSGFSLSTFGMGVGWIRQSSGKGLEWLANIWWDDDKYYNPALKSRLTISKDASKNQAFLKIANVDTADTATYYCARIGNYGSNYWYFDVWGTGTTVTVSS VL: QIVLTQSPAIMSASPGERVTMTCSANSRISYMYWYQQKPGSSPRLLIYDTSNLASGVPVRFSGSGSGTSYSLTISRMEAEDAATYNCQQWSSYPLTFGAGTKLELK	≥ 60%	≥ 60%
antibody 22 (antibody, V domains shown, mouse IgG, kappa light chain; also called clone #22; purified antibody 22) VH: QVTLKESGPGILQPSQTLSLTCSFSGFSLSTFGMGVGWIRQPSGKGLEWLAHIWWDDEKYYNSALKSRLTISKATSKNQVFLKIANVDTADTATYYCARISNYGSNYWYFNVWGTGTTVTVSS VL: QVVLTQSPALMSASPGEKVTMTCSAGSSVSYMYWYQQKPGSSPRVLIYDTSNLASGVPARFTGSGSGTSYSLTISRMEAEDAATYYCQQWNSYPLTFGAGTKLELK	≥ 30%	≥ 30%
antibody 34 (antibody, V domains shown, mouse IgG, kappa light chain; also called clone #34; purified antibody 34) VH: QVTLKESGPGILQPSQTLSLTCSFSGFSLSTFSLGVGWIRQSSGKGLEWLAHIWWDDEKYYNPALKSRLTISKDTSKNQVFLKIANVDAADTATYYCARAYYSKSYYALDYWGQGTSVTVSS VL: DIQMTQSPSSLSASLGERVSLTCRASQEISGYLSWLQQKPDGTIKRLIYAASTLDSGVPKRFSGSRSGSDYSLAISSLESEDFADYYCLQYANFPFTFGSGTKLEIK	≥ 60%	≥ 60%
antibody 48 (antibody, V domains shown, mouse IgG, kappa light chain; also called clone #48; purified antibody 48) VH: QVQLQQSGTELVRPGTSVKVSCKASGYAFTNYLIEWVKQRPGQGLEWIGVINPGSGFTKYNEKFKGKATLTADKSSSTVYMHLSSLTSEDSAVYFCARGLYRAMDYWGQGTSVTVSS VL: DIQMTQSPASQSASLGESVTITCLASQTIATWLAWYQQKPGKSPQLLIYGATTLADGVPSRFSGGGSGTKFSFKISSLQAEDFVSYYCQQLYSTPYTFGGGTKLEIK	≥ 30%	–
antibody 50 (antibody, V domains shown, mouse IgG, kappa light chain; also called clone #50; purified antibody 50) VH: QVQLQQSGAELVRPGASVKVSCKASGYAFSNYLIEWVKQRPGQGLEWIGVINPGSGFTKYNEKFKGKATLTADKSSSTAYMQLSSLTSEDSAVYFCARGLYRAMDYWGQGTSVTVSS VL: DIQMTQSPASQSASLGESVTITCLASQTIGTWLAWYQQKPGKSPQLLIYAAASLADGVPSRFSGGGSGTKFSFKISSLQAEDFVNYYCQQIYSTPYTFGGGTKLEIK	≥ 30%	≥ 30%
